# Assay results published in doi:10.1101/388728.
# How the values were obtained:
# [1] = molecular target: His6-TRX-PfPPR1 (Plasmodium falciparum apicoplast pentatricopeptide repeat protein 1, with His6-TRX tag) (Plasmodium falciparum); assay: SEC
# [2] = molecular target: PfPPR1 minus the His6-TRX tag (tag cleaved by HRV 3C protease) (Plasmodium falciparum); assay: AUC
stoichiometry N [1],stoichiometry N [2],Substance
2,–,"His6-TRX-PfPPR1 (Plasmodium falciparum apicoplast pentatricopeptide repeat protein 1, with His6-TRX tag) (natural protein)"
–,2,PfPPR1 minus the His6-TRX tag (tag cleaved by HRV 3C protease) (natural protein)
